In general, stoichiometry N refers to the number of molecules, sites or subunits per partner or assembly.

The text below walks through data of paper PMC5494299.

The assay has as its target CagV (Helicobacter pylori (endogenous in strain 26695)). Kind of assay: cross-linking; 5 mM DSP added to wild‐type H. pylori extract (0.1% DDM, 0.2% sarcosine) on ice for 25 min; SDS/PAGE and western blot with anti‐CagV antibody (mice); ΔcagV extract as control. On the technique in general: A western blot detects proteins with antibodies after separation by electrophoresis.

CagV (natural protein): the stoichiometry N came to 2.
